biological target: T1, HLA-A*02:01 (human); assay: UV peptide exchange ELISA
T1 construct: monomers captured on streptavidin plates; also called MHC class I
Procedure, shortened: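 Peptide-MHC complexes formed by UV-triggered exchange of a cleavable peptide for the test peptide, with stabilised complexes indicating binding. Exchange products diluted 100 fold onto streptavidin-coated wells, 1h at 37° C.; HRP anti-β2m (2 μg/ml), TMB, absorbance at 450 nm gives exchange yield.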

Row | Binder | peptide exchange yield
1 | QLLDETSAITL | 50 to 75%
2 | TLIEDEIATI | 20 to 50%
3 | FIDEAYVEV | 20 to 50%
4 | ALQNYIKEA | 20 to 50%
5 | ALLELENSVTL | 50 to 75%
6 | ILFANPNIFV | 50 to 75%
7 | SLLEQGLVEA | 20 to 50%
8 | ILFRYPLTI | 50 to 75%
9 | ALFQATAEV | ≥ 75%
10 | LLADVTHLL | 20 to 50%
11 | KMLGIPISNILMV | 50 to 75%
12 | ALFMKQIYL | 50 to 75%
13 | YVYPQRLNFV | 50 to 75%
14 | ALLHPQGFEV | 20 to 50%
15 | GLLDTQTSQVLTA | 20 to 50%
16 | LLAVIGGLVYL | 50 to 75%
17 | ALALGGIAVV | ≥ 75%
18 | ALLPDLPAL | 50 to 75%
19 | YLFGERLLEC | 50 to 75%
20 | KLLEEDGTIITL | 20 to 50%
21 | YLFEPLYHV | 50 to 75%
22 | LILDWVPYI | 50 to 75%
23 | SLLTEQDLWTV | 20 to 50%
24 | ILLDDTGLAYI | 50 to 75%
25 | VLFSGALLGL | 20 to 50%
26 | KLYDRILRV | 20 to 50%
27 | ALYDVFLEV | 20 to 50%

Row | Binder | peptide exchange yield
28 | YLMDLINFL | 50 to 75%
29 | VLDDSIYLV | 20 to 50%
30 | LLDAMNYHL | 20 to 50%
31 | YLDDLNEGVYI | 20 to 50%
32 | RLADKSVLV | 50 to 75%
33 | YLAPELFVNV | 20 to 50%
34 | ALLPLSPYL | 50 to 75%
35 | KLGHTDILVGV | 20 to 50%
36 | GLVNDLARV | 20 to 50%
37 | HLYSSIEHLTT | 50 to 75%
38 | SLVNVVPKL | 20 to 50%
39 | TLIEESAKV | 20 to 50%
40 | AMLNEPWAV | 50 to 75%
41 | KVSNSGITRV | 20 to 50%
42 | HLAEVSAEV | 50 to 75%
43 | SMAPGLVIQAV | 50 to 75%
44 | KLDDLTQDLTV | 20 to 50%
45 | KLLPLAGLYL | ≥ 75%
46 | YLLQEIYGI | 50 to 75%
47 | ALADGVTMQV | 20 to 50%
48 | ALLENPKMEL | 50 to 75%
49 | GLLGGGGVLGV | 50 to 75%
50 | GLWEIENNPTV | 50 to 75%
51 | GLLRDEALAEV | 50 to 75%
52 | QLIPALAKV | 50 to 75%
53 | QLVPALAKV | 20 to 50%
54 | NLLETKLQL | 50 to 75%
